Reference: publication PMC5648196, “The transcriptional regulator LysG (Rv1985c) of Mycobacterium tuberculosis activates lysE (Rv1986) in a lysine-dependent manner”

What was measured:
[1] = biological target: T1, LysG(Mt) (Mycobacterium tuberculosis) (UniProt P9WMF5); experiment: EMSA
T1 sequence: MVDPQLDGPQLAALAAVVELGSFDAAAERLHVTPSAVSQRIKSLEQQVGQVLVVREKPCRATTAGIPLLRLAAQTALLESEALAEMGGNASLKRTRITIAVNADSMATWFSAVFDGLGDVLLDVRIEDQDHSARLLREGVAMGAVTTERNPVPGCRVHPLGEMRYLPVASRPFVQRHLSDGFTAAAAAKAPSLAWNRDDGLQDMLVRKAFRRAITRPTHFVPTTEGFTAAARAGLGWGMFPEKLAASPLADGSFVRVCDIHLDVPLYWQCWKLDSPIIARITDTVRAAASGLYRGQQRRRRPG

LysG(Mt) = biological target: T2, LysG(Mt) (Mycobacterium tuberculosis, UniProt P9WMF5 1-303); experiment: EMSA; 200 pmole LysG, 10 fmole DNA; conditions: protein: recombinant, tags: His6 (pQE30-LysG(Mt)x6His), chain copies: 4, blunt
T2 sequence: T1 sequence

For “TTCAGACCGGCACGTTTCAGAGCGGTGGGGATGTCCCGACGTGCGATCCGACAGGGGTTCGCAGGGTCCGCAAAAAACATAGTGAACGCCAGAAAGCCGAATGGGAGTACAAGGCGATGCCGGT (double strand) [oligonucleotide V (fadD26 upstream)]”, the binding [1] was “no binding”.

In the case of “CGCTGCGGTCATTGTGTTCCTCTTAGTCGTTCCGAAAGTTGTTCCAACAACTCGGCTTCGGTCAGTTCGTGGTAGGAGTCGGTGGCTTGCTGGGTTGCGACTGCGGTTGCCCCAATTTCGAGGAGCTCAGGC (double strand) [oligonucleotide VII (ppsC upstream)]”, the binding [1] is reported as “no binding”.

B1: oligonucleotide II (dsDNA)
DNA 1: CTCAGGTGTAGACCATCTGCGGAGCGTCGCACTGCACATTAATAATGCTAATGT
DNA 2: ACATTAGCATTATTAATGTGCAGTGCGACGCTCCGCAGATGGTCTACACCTGAG
B1: no binding (LysG(Mt); label: 5'-biotin on reverse strand (834)).

B2: oligonucleotide III (dsDNA)
DNA 1: AAATGAAGAATTATTAGCTATACTGACCCATACAAACTGCCTAGTGTCGATTGC
DNA 2: GCAATCGACACTAGGCAGTTTGTATGGGTCAGTATAGCTAATAATTCTTCATTT
B2: no binding (LysG(Mt); label: 5'-biotin on reverse strand (836)).

B3: oligonucleotide IV (dsDNA)
DNA 1: CGCACTGCACATTAATAATGCTAATGTAAATGAAGAATTATTAGCTATACTGAC
DNA 2: GTCAGTATAGCTAATAATTCTTCATTTACATTAGCATTATTAATGTGCAGTGCG
B3: binds (LysG(Mt); label: 5'-biotin on reverse strand (838)).
